Results as given in patent publication US20180263927A1.

Target: PSA (prostate specific antigen) (UniProt P07288)
Test: cell-based or functional assay

Chain of UniProt P07288 (P07288 25-261 limits assumed): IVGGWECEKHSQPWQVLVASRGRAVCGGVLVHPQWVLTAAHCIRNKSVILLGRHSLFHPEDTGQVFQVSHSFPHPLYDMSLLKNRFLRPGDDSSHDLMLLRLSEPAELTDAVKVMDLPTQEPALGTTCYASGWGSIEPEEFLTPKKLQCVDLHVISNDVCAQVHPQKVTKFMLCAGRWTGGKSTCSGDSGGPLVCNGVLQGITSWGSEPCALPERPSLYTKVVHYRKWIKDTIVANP

Substance: Analog 221 (211/amide or nonester) Mu-His-Ser-Ser-Lys(Fmoc)-Leu-Gln-Leu (peptide)
- cytotoxicity IC50, 48 hour exposure, Prostate DuPro cells (trace PSA): 13 µM
- cytotoxicity IC50, 48 hour exposure, Prostate LnCAP cells (positive PSA): 0.8 µM
- cytotoxicity IC50, 48 hour exposure, Prostate PC3 cells (negative PSA, control): > 21 µM
